Measurements taken from patent US10590193 (dated 2020).

Experiments:
human VEGF165 [1] = target: T1, human VEGF165 (human, UniProt P15692); experiment: SPR, pH 5
T1 chain: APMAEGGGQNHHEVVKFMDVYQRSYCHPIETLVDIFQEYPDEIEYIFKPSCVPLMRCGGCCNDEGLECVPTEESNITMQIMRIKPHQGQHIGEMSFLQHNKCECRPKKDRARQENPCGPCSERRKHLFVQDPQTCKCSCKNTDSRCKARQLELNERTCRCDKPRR

human VEGF165 [2] = target: T1, human VEGF165; experiment: SPR, pH 7.4
human VEGF165 [3] = target: T1, human VEGF165; experiment: SPR, pH 5

B1: 435-max (antibody, V domains shown)
VH: EVQLVESGGGLVQPGGSLRLSCKVSGFSLNTNYWMCWVRQAPGKGLEWVGCMYTGSYNRAYYASWAKGRFTSSKDTSKNTVYLQMNSLRAEDTAVYYCAKGSNWYSDLWGQGTLVTVSS
VL: EIVMTQSPSTLSASVGDRVIIKCQASQSIGSSLAWYQQKPGKAPKLLIYTAANLASGVPSRFSGSGSGAEFTLTISSLQPDDFATYYCQNFATSDTVTFGQGTKLTVLG
Q: Which Kd (human VEGF165 [1]) does the source give for B1 here?
A: The Kd was 4.53 nM.

Q: And the Kd (human VEGF165 [2])?
A: Its Kd is 0.0922 nM.

B2: 578-max FW1.4_DHP (960) (antibody, V domains shown)
VH: EVQLVESGGGSVQPGGSLRLSCTASGFSLTDYYYMTWVRQAPGKGLEWVGFIDPDDDPYYATWAKGRFTISRDTSKNTVYLQMNSLRAEDTATYYCAGGDHNSGWGLDIWGQGTTVTVSS
VL: EIVMTQSPSTLSASVGDRVIITCQASEIIHSWLAWYQQKPGKAPKLLIYLASTLASGVPSRFSGSGSGTQFTLTISSLQPDDFATYYCQNVYLASTNGANFGQGTKLTVLG
Q: With B2 as the binder, how does the Kd (human VEGF165 [3]) read?
A: The Kd was 0.266 nM.

B3: 578min_max T84N_V89A (1009) (antibody, V domains shown)
VH: EVQLVESGGGLVQPGGSLRLSCTASGFSLTDYYYMTWVRQAPGKGLEWVGFIDPDDDPYYATWAKGRFTISRDNSKNTAYLQMNSLRAEDTAVYYCAGGDHNSGWGLDIWGQGTLVTVSS
VL: EIVMTQSPSTLSASVGDRVIITCQASEIIHSWLAWYQQKPGKAPKLLIYLASTLASGVPSRFSGSGSGAEFTLTISSLQPDDFATYYCQNVYLASTNGANFGQGTKLTVLG
Q: For B3, which Kd (human VEGF165 [3]) is on record?
A: The Kd was 0.615 nM.

B4: 578-max-min (902) (antibody, V domains shown)
VH: EVQLVESGGGLVQPGGSLRLSCAASGFSLTDYYYMTWVRQAPGKGLEWVSFIDPDDDPYYATWAKGRFTISRDNSKNTLYLQMNSLRAEDTAVYYCAKGDHNSGWGLDIWGQGTLVTVSS
VL: EIVMTQSPSTLSASVGDRVIITCQASEIIHSWLAWYQQKPGKAPKLLIYLASTLASGVPSRFSGSGSGTQFTLTISSLQPDDFATYYCQNVYLASTNGANFGQGTKLTVLG
Q: Which Kd (human VEGF165 [3]) does the source give for B4 here?
A: Its Kd is 6.55 nM.

B5: 578min_max V89L (980) (antibody, V domains shown)
VH: EVQLVESGGGLVQPGGSLRLSCTASGFSLTDYYYMTWVRQAPGKGLEWVGFIDPDDDPYYATWAKGRFTISRDTSKNTLYLQMNSLRAEDTAVYYCAGGDHNSGWGLDIWGQGTLVTVSS
VL: EIVMTQSPSTLSASVGDRVIITCQASEIIHSWLAWYQQKPGKAPKLLIYLASTLASGVPSRFSGSGSGAEFTLTISSLQPDDFATYYCQNVYLASTNGANFGQGTKLTVLG
Q: For B5, which Kd (human VEGF165 [3]) is on record?
A: Its Kd is 2.13 nM.

B6: 375-max (antibody, V domains shown)
VH: EVQLVESGGGLVQPGGSLRLSCKASGFSFTTTDYMCWVRQAPGKGLEWVGCILAGDGSTYYANWAKGRFTGSKDTSKNTVYLQMNSLRAEDTAVYYCARSDPASSWSFALWGQGTLVTVSS
VL: EIVMTQSPSTLSASVGDRVIITCQASENINIWLSWYQQKPGKAPKLLIYQASKLASGVPSRFSGSGSGTQFTLTISSLQPDDFATYYCQNNYSYNRYGAPFGQGTKLTVLG
Q: B6 was tested. Which Kd (human VEGF165 [1]) did it give?
A: The Kd was 2.68 nM.

Q: And the Kd (human VEGF165 [2])?
A: The Kd was 4.74 nM.

B7: 534-min C-His (antibody, V domains shown)
VH: EVQLVESGGGLVQPGGSLRLSCAASGFSLSYYYMSWVRQAPGKGLEWVSIIGPGDYTDYASWAKGRFTISRDNSKNTLYLQMNSLRAEDTAVYYCAKGDDNSGWGEDIWGQGTLVTVSS
VL: EIVMTQSPSTLSASVGDRVIITCQASQSINIWLSWYQQKPGKAPKLLIYKESTLASGVPSRFSGSGSGAEFTLTISSLQPDDFATYYCQNNYDSGNNGFPFGQGTKLTVLG
Q: B7 was tested. Which Kd (human VEGF165 [1]) did it give?
A: The Kd was 34.1 nM.

B8: 534-max (antibody, V domains shown)
VH: EVQLVESGGGLVQPGGSLRLSCTASGFSLSYYYMSWVRQAPGKGLEWVGIIGPGDYTDYASWAKGRFTISKDTSKNTVYLQMNSLRAEDTAVYYCARGDDNSGWGEDIWGQGTLVTVSS
VL: EIVMTQSPSTLSASVGDRVIITCQASQSINIWLSWYQQKPGKAPKLLIYKESTLASGVPSRFSGSGSGTEFTLTISSLQPDDFATYYCQNNYDSGNNGFPFGQGTKLTVLG
Q: Which Kd (human VEGF165 [1]) does the source give for B8 here?
A: The Kd was 9.21 nM.

Q: And the Kd (human VEGF165 [2])?
A: Its Kd is 2.47 nM.
